Laboratory results: patent US20180057581A1 (MorphoSys, published 2018)
Where a chain is given by its changes, count along the chain named.

What was measured:
[1] = target: T1, Recombinant human sgM-CSF (human, UniProt P09603 33-255); experiment: cell-based or functional assay
T1 sequence: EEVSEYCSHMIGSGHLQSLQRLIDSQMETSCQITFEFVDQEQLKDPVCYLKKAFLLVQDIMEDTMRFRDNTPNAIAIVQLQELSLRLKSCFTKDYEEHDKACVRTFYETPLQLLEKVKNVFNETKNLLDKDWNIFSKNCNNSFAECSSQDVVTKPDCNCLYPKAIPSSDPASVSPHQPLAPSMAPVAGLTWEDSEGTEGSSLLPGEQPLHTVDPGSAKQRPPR

[2] = target: T2, Recombinant cynomolgus monkey sgM-CSF (cynomolgus (Macaca fascicularis), UniProt P09603 33-255 (human entry), limits assumed); experiment: cell-based or functional assay
T2 chain: T1 sequence with V186M, E192D

GM-CSF = GM-CSF (Homo sapiens (Human), UniProt P04141 18-144); experiment: not described (Table 12, criterion Binding)
Ovalbumin (chicken) [3] = target: T3, Ovalbumin (chicken) (chicken, UniProt P01012 2-386); experiment: MSD specificity profiling, coated protein
T3 sequence (looked up): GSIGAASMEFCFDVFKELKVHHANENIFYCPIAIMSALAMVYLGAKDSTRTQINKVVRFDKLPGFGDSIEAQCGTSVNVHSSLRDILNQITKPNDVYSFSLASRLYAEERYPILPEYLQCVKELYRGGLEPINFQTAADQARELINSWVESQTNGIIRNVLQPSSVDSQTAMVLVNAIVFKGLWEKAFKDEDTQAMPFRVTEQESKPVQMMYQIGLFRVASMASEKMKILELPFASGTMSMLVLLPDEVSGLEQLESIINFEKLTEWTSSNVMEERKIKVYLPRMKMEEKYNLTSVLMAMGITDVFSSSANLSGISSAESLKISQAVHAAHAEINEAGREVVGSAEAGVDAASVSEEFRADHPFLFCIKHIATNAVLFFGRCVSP
Experimental: (§1) For this specificity profiling test the different proteins and controls were coated on two 384-well MSD plates with a concentration of 1 μg/ml at 4° C. over night. Plates were blocked with BSA and washed three times with PBS with 0.05% (v/v) Tween 20. Antibody samples were diluted to 100 nM and 10 nM in assay buffer (PBS with 0.5% (w/v) BSA, 0.05% (v/v) Tween 20). […] Samples and controls were incubated for three hours at room temperature. The plates were washed three times and 30 μl detection antibody (ECL-labeled anti-human Fab) were added per well and incubated for 1 h. After washing, MSD Read Buffer T with surfactant was added and electrochemiluminescence signals were detected using a Sector Imager 6000 (Meso Scale Discovery, Gaithersburg, Md., USA).

Trypsinogen (cow) [4] = target: T4, Trypsinogen (cow) (cow, UniProt P00760 18-246); experiment: MSD specificity profiling, coated protein
T4 sequence (looked up): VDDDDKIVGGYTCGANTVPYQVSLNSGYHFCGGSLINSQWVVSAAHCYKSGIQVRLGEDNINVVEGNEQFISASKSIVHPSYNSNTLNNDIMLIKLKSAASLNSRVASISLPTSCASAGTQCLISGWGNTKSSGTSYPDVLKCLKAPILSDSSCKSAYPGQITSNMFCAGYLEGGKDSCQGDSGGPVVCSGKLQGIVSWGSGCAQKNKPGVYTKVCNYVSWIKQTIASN
Experimental: as §1

Myoglobin (horse) = Myoglobin (horse) (horse, UniProt P68082 2-154); experiment: MSD specificity profiling, coated protein
Experimental: as §1

Lectin (Lens culinaris) = target: T5, Lectin (Lens culinaris) (Lens culinaris, UniProt P02870 31-210; P02870 218-269, limits assumed); experiment: MSD specificity profiling, coated protein
T5 sequence (looked up) 1: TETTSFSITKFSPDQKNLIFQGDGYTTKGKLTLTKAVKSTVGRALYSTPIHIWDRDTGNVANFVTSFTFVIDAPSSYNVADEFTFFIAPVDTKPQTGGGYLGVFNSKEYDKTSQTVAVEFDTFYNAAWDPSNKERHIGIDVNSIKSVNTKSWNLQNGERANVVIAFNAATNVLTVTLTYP
T5 sequence (looked up) 2: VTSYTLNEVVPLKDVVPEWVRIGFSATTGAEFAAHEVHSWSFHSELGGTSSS
Experimental: as §1

Transferrin (bovine) = Transferrin (bovine) (bovine, UniProt Q29443 20-704); experiment: MSD specificity profiling, coated protein, Camille at 10 nM
Experimental: as §1

Ovalbumin (chicken) [5] = target: T3, Ovalbumin (chicken); experiment: as above
Experimental: as §1

Trypsinogen (cow) [6] = target: T4, Trypsinogen (cow); experiment: as above
Experimental: as §1

[7] = target: Cell surface receptor 1 (human) (human); experiment: as above
Experimental: as §1

RNase A (cow) = target: T6, RNase A (cow) (cow, UniProt P61823 27-150); experiment: as above
T6 sequence (looked up): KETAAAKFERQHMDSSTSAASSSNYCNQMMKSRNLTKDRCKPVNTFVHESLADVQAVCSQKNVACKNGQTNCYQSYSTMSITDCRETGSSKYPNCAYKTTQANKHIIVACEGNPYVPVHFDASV
Experimental: as §1

RNase B (cow) = target: T7, RNase B (cow) (cow, UniProt P61823 27-150); experiment: as above
T7 sequence (looked up): T6 sequence (looked up)
Experimental: as §1

[8] = target: Anti-human Fc (Dianova, #109-005-098); experiment: as above
Experimental: as §1

Cytochrome c (cow) = Cytochrome c (cow) (cow, UniProt P62894 2-105); experiment: as above
Experimental: as §1

Pepsinogen (pork) = Pepsinogen (pork) (pork, UniProt P00791 16-385); experiment: as above
Experimental: as §1

[9] = target: Anti-human Fab (Dianova, # 109-005-097); experiment: as above
Experimental: as §1

[10] = target: Cell surface receptor 3 (human) (human); experiment: as above
Experimental: as §1

Sequence of GM-CSF (P04141 18-144 limits assumed): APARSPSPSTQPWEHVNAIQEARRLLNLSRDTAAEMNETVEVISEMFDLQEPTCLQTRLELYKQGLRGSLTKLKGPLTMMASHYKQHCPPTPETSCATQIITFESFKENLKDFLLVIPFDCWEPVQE
Sequence of Transferrin (bovine) (Q29443 20-704 limits assumed): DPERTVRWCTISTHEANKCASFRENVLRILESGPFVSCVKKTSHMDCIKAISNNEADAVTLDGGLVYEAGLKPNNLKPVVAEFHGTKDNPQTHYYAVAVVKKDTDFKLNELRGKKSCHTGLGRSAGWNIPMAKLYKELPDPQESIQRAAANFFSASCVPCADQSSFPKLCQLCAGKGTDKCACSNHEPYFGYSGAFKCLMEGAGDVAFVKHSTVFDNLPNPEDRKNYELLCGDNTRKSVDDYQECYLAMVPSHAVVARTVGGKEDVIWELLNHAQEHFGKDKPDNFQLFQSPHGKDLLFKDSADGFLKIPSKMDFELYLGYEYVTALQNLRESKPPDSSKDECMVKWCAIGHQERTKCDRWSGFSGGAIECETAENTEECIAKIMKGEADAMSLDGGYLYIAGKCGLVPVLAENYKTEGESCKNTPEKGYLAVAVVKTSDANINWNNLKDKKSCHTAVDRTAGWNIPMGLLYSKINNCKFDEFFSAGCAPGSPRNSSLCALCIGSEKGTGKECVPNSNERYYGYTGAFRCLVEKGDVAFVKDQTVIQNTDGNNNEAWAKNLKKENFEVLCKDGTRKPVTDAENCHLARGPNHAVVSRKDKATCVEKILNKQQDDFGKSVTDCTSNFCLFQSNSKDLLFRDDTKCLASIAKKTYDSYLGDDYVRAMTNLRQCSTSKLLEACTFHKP
Sequence of Pepsinogen (pork) (P00791 16-385): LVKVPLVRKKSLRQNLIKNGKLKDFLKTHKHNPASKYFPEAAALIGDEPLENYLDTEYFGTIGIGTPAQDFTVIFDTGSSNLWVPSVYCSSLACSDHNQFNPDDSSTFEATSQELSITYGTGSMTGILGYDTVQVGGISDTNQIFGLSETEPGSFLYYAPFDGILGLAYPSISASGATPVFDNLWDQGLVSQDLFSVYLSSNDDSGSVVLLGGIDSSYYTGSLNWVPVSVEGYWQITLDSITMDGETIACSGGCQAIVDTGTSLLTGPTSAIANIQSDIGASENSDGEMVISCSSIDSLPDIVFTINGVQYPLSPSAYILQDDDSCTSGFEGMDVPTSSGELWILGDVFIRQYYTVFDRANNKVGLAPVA
Sequence of Myoglobin (horse) (P68082 2-154 limits assumed): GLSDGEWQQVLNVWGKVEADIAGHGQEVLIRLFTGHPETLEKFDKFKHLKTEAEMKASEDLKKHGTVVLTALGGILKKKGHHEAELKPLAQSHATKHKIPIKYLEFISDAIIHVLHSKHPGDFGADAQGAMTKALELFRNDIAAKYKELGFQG
Sequence of Cytochrome c (cow) (P62894 2-105 limits assumed): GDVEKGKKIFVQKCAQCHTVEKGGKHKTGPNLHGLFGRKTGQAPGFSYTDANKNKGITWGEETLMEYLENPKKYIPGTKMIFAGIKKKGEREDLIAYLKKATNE

B1: Camille (format not stated) (antibody, V domains shown)
VH: QVQLQQSGPGLVKPSQTLSLTCAISGESVSTSSAAWNWIRQSPSRGLEWLGRTYYRSKWKHEYAVSVKSRITINPDTSKNQFSLQLNSVTPEDTAVYYCARDRYYYSAFDYWGQGTLVTVSS
VL: QSALTQPASVSGSPGQSITISCTGTSSDVGGYNSVSWYQQHPGKAPKLLIYAVSNRPSGVSNRFSGSKSGNTASLTISGLQAEDEADYYCASYDERFTRVFGGGTKLTVLG
notes: also called Antibody Camille
- Cell viability assay (IC50), Human M-CSF [1]: 2 pM
- Cell viability assay (IC50), Cynomolgus M-CSF [2]: 3 pM
- binding result (GM-CSF): no binding
- binding result (Ovalbumin (chicken) [3]): no binding (tested: 100 nM and 10 nM antibody)
- binding result (Trypsinogen (cow) [4]): no binding (tested: 100 nM and 10 nM antibody)
- binding result (Myoglobin (horse)): no binding (tested: 100 nM and 10 nM antibody)
- binding result (Lectin (Lens culinaris)): no binding (tested: 100 nM and 10 nM antibody)
- signal normalized to reference antibody MOR03207 (Transferrin (bovine)): 1 ratio
- signal normalized to reference antibody MOR03207 (Ovalbumin (chicken) [5]): 1 ratio
- signal normalized to reference antibody MOR03207 (Trypsinogen (cow) [6]): 1 ratio
- signal normalized to reference antibody MOR03207 [7]: 1 ratio
- signal normalized to reference antibody MOR03207 (RNase A (cow)): 1 ratio
- signal normalized to reference antibody MOR03207 (RNase B (cow)): 1 ratio
- signal normalized to reference antibody MOR03207 [8]: 1 ratio
- signal normalized to reference antibody MOR03207 (Cytochrome c (cow)): 1 ratio
- signal normalized to reference antibody MOR03207 (Pepsinogen (pork)): 1 ratio
- signal normalized to reference antibody MOR03207 [9]: 1 ratio
- signal normalized to reference antibody MOR03207 [10]: 1 ratio
